Biological target: murine receptor (mouse) (UniProt Q08351)
Test: cell-based or functional assay

Chain of murine receptor (mouse) (Q08351 26-625): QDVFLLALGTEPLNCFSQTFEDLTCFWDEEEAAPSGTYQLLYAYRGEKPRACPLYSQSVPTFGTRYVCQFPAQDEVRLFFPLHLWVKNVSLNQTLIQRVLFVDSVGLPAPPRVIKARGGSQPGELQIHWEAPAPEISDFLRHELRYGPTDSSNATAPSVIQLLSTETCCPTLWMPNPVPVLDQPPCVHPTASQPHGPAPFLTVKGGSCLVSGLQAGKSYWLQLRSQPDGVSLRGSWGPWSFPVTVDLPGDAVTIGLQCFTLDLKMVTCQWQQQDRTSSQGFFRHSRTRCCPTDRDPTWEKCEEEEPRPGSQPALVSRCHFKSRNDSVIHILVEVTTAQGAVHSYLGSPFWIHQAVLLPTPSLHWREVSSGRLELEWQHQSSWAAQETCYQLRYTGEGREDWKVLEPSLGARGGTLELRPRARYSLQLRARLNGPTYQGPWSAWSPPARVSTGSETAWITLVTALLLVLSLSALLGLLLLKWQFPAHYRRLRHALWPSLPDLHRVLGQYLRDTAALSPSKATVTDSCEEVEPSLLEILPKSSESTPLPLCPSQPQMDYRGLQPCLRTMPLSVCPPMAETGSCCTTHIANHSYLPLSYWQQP

Substance: recombinant human TPO (from UniProt P40225 22-353) (ligand)
- colonies of 3-5 large cells, mouse marrow in methylcellulose, 1 nM TPO #1-1: 15 colonies
- colonies of 3-5 large cells, mouse marrow in methylcellulose, 1 nM TPO #1-2: 12 colonies
- colonies of 3-5 large cells, mouse marrow in methylcellulose, 1 nM TPO #2-1: 16 colonies
- colonies of 3-5 large cells, mouse marrow in methylcellulose, 1 nM TPO #2-2: 13 colonies
- colonies of 6-12 large cells, mouse marrow in methylcellulose, 1 nM TPO #1-1: 6 colonies
- colonies of 6-12 large cells, mouse marrow in methylcellulose, 1 nM TPO #1-2: 1 colonies
- colonies of 6-12 large cells, mouse marrow in methylcellulose, 1 nM TPO #2-1: 8 colonies
- colonies of 6-12 large cells, mouse marrow in methylcellulose, 1 nM TPO #2-2: 3 colonies

From patent US7091311
